Test system: NC(=O)c1ccc[n+]([C@@H]2O[C@H](COP(=O)(O)OP(=O)(O)OC[C@H]3O[C@@H](n4cnc5c(N)ncnc54)[C@H](O)[C@@H]3O)[C@@H](O)[C@H]2O)c1
Experiment: purified protein
Settings: phosphite and NAD+ varied, 100 mM MOPS pH 7.25, 25 °C

Row | Substance | Km
1 | 17X-PTDH (Stutzerimonas stutzeri; A319E/A325V/C336D/D13E/E130K/E175A/E332N/I150F/I313L/L276Q/M26I/Q132R/Q137R/Q215L/R275Q/R301A/V315A/V71I) | 0.216 (0.015) mM
2 | 17X-PTDH (Stutzerimonas stutzeri; A319E/A325V/C336D/D13E/E130K/E175A/E332N/I150F/I313L/L276Q/M26I/Q132R/Q137R/Q215L/R275Q/R301K/V315A/V71I) | 0.074 (0.007) mM
3 | 17X-PTDH (Stutzerimonas stutzeri; A319E/A325V/C336D/D13E/E130K/E175A/E332N/I150F/I313L/L276Q/M26I/Q132R/Q137R/Q215L/R275Q/V315A/V71I) | 0.022 (0.006) mM

Reference: paper PMC3361975
